From publication PMC4908412, “β-arrestin-1 contributes to brown fat function and directly interacts with PPARα and PPARγ” (Scientific Reports, 2016) come the findings set out here.

The chains are these.
B1: 9-cis-retinoic acid receptor α-ligand binding domain (amino acids 196–435) (domain or fragment, human, UniProt P19793 223-462, looked up)
chain: TSSANEDMPVERILEAELAVEPKTETYVEANMGLNPSSPNDPVTNICQAADKQLFTLVEWAKRIPHFSELPLDDQVILLRAGWNELLIASFSHRSIAVKDGILLATGLHVHRNSAHSAGVGAIFDRVLTELVSKMRDMQMDKTELGCLRAIVLFNPDSKGLSNPAEVEALREKVYASLEAYCKHKYPEQPGRFAKLLLRLPALRSIGLKCLEHLFFFKLIGDTPIDTFLMEMLEAPHQMT
notes: also called RXRα-LBD; source: E. coli BL21 (DE3)-CodonPlus, purified
B2: synthetic β-arrestin-1 peptide harboring the LQERLIKKL sequence (peptide)
chain: PAPEDKKPLTRLQERLIKKLG
B3: PPARα-LBD D371A (domain or fragment, human, UniProt Q07869 196-468, looked up)
chain: EDSETADLKSLAKRIYEAYLKNFNMNKVKARVILSGKASNNPPFVIHDMETLCMAEKTLVAKLVANGIQNKEAEVRIFHCCQCTSVETVTELTEFAKAIPGFANLDLNDQVTLLKYGVYEAIFAMLSSVMNKDGMLVAYGNGFITREFLKSLRKPFCDIMEPKFDFAMKFNALELADSDISLFVAAIICCGDRPGLLNVGHIEKMQEGIVHVLRLHLQSNHPDDIFLFPKLLQKMADLRQLVTEHAQLVQIIKKTESDAALHPLLQEIYRDMY
notes: also called PPARα M2; source: E. coli BL21 (DE3)-CodonPlus, purified
B4: PPARγ-LBD L311G/N312G (domain or fragment, human, UniProt P37231-2 204-477, looked up)
chain: LNPESADLRALAKHLYDSYIKSFPLTKAKARAILTGKTTDKSPFVIYDMNSLMMGEDKIKFKHITPLQEQSKEVAIRIFQGCQFRSVEAVQEITEYAKSIPGFVNLDGGDQVTLLKYGVHEIIYTMLASLMNKDGVLISEGQGFMTREFLKSLRKPFGDFMEPKFEFAVKFNALELDDSDLAIFIAVIILSGDRPGLLNVKPIEDIQDNLLQALELQLKLNHPESSQLFAKLLQKMTDLRQIVTEHVQLLQVIKKTETDMSLHPLLQEIYKDLY
notes: also called PPARγ M1; source: E. coli BL21 (DE3)-CodonPlus, purified
B5: PPARα-ligand binding domain (amino acids 196–468) (domain or fragment, human, UniProt Q07869 196-468, looked up)
chain: B3 chain with A176D
modifications: biotinylated for biolayer interferometry; 15N-labeled for NMR
notes: The His tag is used for capture in the pulldown; also called PPARα-LBD; wild-type PPARα; source: E. coli BL21 (DE3)-CodonPlus, purified; not shown: His6, N-terminal, kept
B6: PPARγ-ligand binding domain (amino acids 204–477) (domain or fragment, human, UniProt P37231-2 204-477, looked up)
chain: B4 chain with G108L, G109N
modifications: biotinylated for biolayer interferometry; 15N-labeled for NMR
notes: The His tag is used for capture in the pulldown; also called PPARγ-LBD; wild-type PPARγ; source: E. coli BL21 (DE3)-CodonPlus, purified; not shown: His6, N-terminal, kept
B7: PPARγ-LBD D380A (domain or fragment, human, UniProt P37231-2 204-477, looked up)
chain: B4 chain with G108L, G109N, D177A
notes: also called PPARγ M2; source: E. coli BL21 (DE3)-CodonPlus, purified

Positions count from the first letter of the chain named. Names may count otherwise.

Common to all, as to details: both partners purified
Assay [1] has as its target B5. Put plainly: BLI; competition: PPARα/γ-LBD and β-arrestin-1 with or without increasing amounts of RXRα-LBD (Supplementary Fig. 5b,c).
The target in assay [2] is B6. Described as above.
Assay [3] deals with B5. Put plainly: BLI; RXRα-LBD with PPARα/γ-LBD; the tables and the methods name PPAR-LBD as ligand and RXRα-LBD as analyte, the legend of Fig. 2e,f says 50 μg/ml RXRα-LBD loaded on SAs with serial dilutions of PPARα/γ-LBD; 25 °C; 2:1 heterogeneous ligand model and steady-state analysis.
Assay [4] addresses B6. Described as above.
For assay [5], the target named is B5. Put plainly: BLI; Octet Red 96; 50 μg/ml biotinylated PPARα-LBD or PPARγ-LBD (or their mutants) immobilised on streptavidin biosensors; analyte β-arrestin-1, βarr1M or peptides in solution (single 2 μM or serial dilutions, β-arrestin-1 0.5–32 μM); 25 °C; 2:1 heterogeneous ligand model and steady-state analysis.
The target of assay [6] is B6. The description is as above.
Assay [7] concerns the target B5. Described as above. This is another data set of the same source.
In assay [8] the target is B6. The assay is described as above. This is another data set of the same source.
In assay [9] the target is T1, β-arrestin-1 (recombinant rattus β-arrestin-1) (rat, UniProt P29066 1-418).
T1 construct: β-arrestin-1, rat (rattus), recombinant; also called βarr1; wild-type β-arrestin-1
T1 sequence (P29066 whole entry): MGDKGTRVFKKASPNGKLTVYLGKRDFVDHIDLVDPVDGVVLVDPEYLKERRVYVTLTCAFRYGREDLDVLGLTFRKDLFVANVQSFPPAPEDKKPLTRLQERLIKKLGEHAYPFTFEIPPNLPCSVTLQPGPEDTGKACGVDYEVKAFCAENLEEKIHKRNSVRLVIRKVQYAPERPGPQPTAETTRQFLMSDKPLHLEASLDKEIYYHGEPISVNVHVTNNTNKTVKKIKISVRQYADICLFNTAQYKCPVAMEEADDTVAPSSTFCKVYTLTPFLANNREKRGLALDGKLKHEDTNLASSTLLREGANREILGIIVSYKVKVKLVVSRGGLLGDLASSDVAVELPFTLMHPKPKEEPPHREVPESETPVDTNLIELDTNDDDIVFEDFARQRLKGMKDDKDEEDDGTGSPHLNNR
The assay is described as above.

Assay [10] deals with T1, β-arrestin-1 (recombinant rattus …). The assay is described as above. The source holds these as a separate data set.
Assay [11] concerns the target T2, β-arrestin-1 double mutant with L100A and L104A (rat, UniProt P29066 1-418, L100A | L104A).
T2 construct: β-arrestin-1 with L100A and L104A; also called βarr1M; source: purified
Described as above.

T2 sequence (P29066 whole entry L100A/L104A): as the sequence (P29066 whole entry) above, with L100A, L104A counted along it

Consider B1, for which the IC50 worked out at 880 nM in [1] and 850 nM in assay [2]. Also, the Kd in [3] was found to be 29 nM; in [4], 71 nM.

In assay [5], B2 displayed a maximum response of 0.27 nm. Moreover, the maximum response in assay [6] turned out to be 0.22 nm. In assay [7], the “KD1 (2:1 HL model)” value came out at 42 µM, the “KD2 (2:1 HL model)” value came out at 60.3 µM, the Kd was determined as 56000 nM and the “koff1 (2:1 HL model)” value was 0.000907 S^−1. Besides, in assay [7], the “koff2 (2:1 HL model)” value stood at 0.161 S^−1, the “kon1 (2:1 HL model)” value was 21.6 M^−1S^−1 and the “kon2 (2:1 HL model)” value came to 2660 M^−1S^−1. In [8], the “KD1 (2:1 HL model)” value stood at 557 µM, the “KD2 (2:1 HL model)” value came out at 521 µM, the Kd amounted to 560000 nM and the “koff1 (2:1 HL model)” value was determined as 0.00323 S^−1. Also, in assay [8], the “koff2 (2:1 HL model)” value turned out to be 0.132 S^−1, the “kon1 (2:1 HL model)” value is 5.8 M^−1S^−1 and the “kon2 (2:1 HL model)” value turned out to be 2.53 M^−1S^−1.

With B3, the Kd in assay [9] was determined as 4100 nM.

Turning to B4, the Kd in assay [10] turned out to be 1900 nM.

For B5, the Kd came to 3600 nM in assay [9] and 3900 nM in assay [11].

On to B6, for which, in assay [10], the Kd came to 1400 nM.

B7: the Kd in assay [10] stood at 1500 nM.
